Experiments:
[1] = Release test: release ratio of API from the derivative in phosphate buffer solution pH 7.4 at 36° C., HPLC; assay type: physicochemical; conditions: phosphate buffer pH 7.4, 36° C.; for Release ratio of API: 5 mg/10 mL; for Release rate: slope of release ratio against time
Experimental: In Examples pertaining to a release test, a release ratio of a pharmaceutical active ingredient (API) from a chondroitin sulfate derivative and a hyaluronic acid derivative, each of which was not fluorescently labeled was evaluated as follows. […] The release ratio was calculated based on the ratio of peak areas of HPLC corresponding to the amount of API in the derivative and the amount of released API using a size-exclusion chromatography column (TSKgel α, manufactured by Tosoh Corporation). Release ratio (%)=peak area of released API/(peak area of API in each derivative+peak area of released API)×100 Also with respect to the hyaluronic acid derivatives of Comparative Examples 2 to 3, evaluation was performed in the same manner as for Examples.

[2] = Evaluation using rat 2: concentration of TA in the bladder after administration to the lumen of the bladder, LC/MS/MS; assay type: in vivo; conditions: bladder homogenate on day 7 after administration; TA dose 0.8 mg/animal into the bladder; hydrochloric acid-pretreated rat; read-out: Concentration of API (TA)
Experimental: In both Example and Comparative Example, the dose of TA was set to 0.8 mg/animal.
The pretreatment was performed in the same manner as in the evaluation 1.
One day after the pretreatment, 0.2 mL of each test substance was transurethrally administered into the bladder using a catheter (PE50) under isoflurane inhalation anesthesia and allowed to stay there for 30 minutes.
Seven days after administering the test substance, the animal was laparotomized under isoflurane inhalation anesthesia and exsanguinated and euthanized by cutting the abdominal aorta, and then, the bladder was collected. The bladder was homogenized in a mixed solution of methanol/buffer solution (10 mmol/L ammonium formate buffer solution (pH 6.0):methanol=3:2 (v/v)), and a measurement sample was prepared so that the tissue concentration was 0.05 g/mL.
Subsequently, the amount of TA in the measurement sample was quantitatively determined by an LC/MS/MS analysis under the following conditions using triamcinolone-6-d1 acetonide-d6 as an internal standard substance.

Row | Molecule | Release ratio of API ([1]; elapsed time 0 days) | Release ratio of API ([1]; elapsed time 1 day) | Release ratio of API ([1]; elapsed time 2 days) | Release ratio of API ([1]; elapsed time 3 days) | Release ratio of API ([1]; elapsed time 4 days) | Release ratio of API ([1]; elapsed time 5 days) | Release ratio of API ([1]; elapsed time 6 days) | Release ratio of API ([1]; elapsed time 7 days) | Release rate [1] | Release of API (result in words) ([1]; 1 week) | concentration at 7 days [2]
1 | 2-Aminoethyl-Dehydrocholate-Introduced CS [CS-DEH-conjugate] | 0.45% | 0.53% | 0.52% | 0.66% | 0.65% | 0.78% | 1.29% | 1.42% | 0.14%/day | – | –
2 | 2-Aminoethyl-Diclofenac-Introduced CS [CS-DIC-conjugate] | 0.00% | 0.95% | 2.06% | 3.13% | 4.11% | 5.40% | 6.55% | 7.62% | 1.10%/day | – | –
3 | 2-Aminoethyl-Probenecid-Introduced CS [CS-PRO-conjugate] | 0.31% | 0.83% | 1.43% | 2.13% | 2.91% | 3.63% | 4.56% | 5.29% | 0.72%/day | – | –
4 | 3-Aminopropyl Cinnamate-Introduced HA [HA-CIN-conjugate, reference compound] | 0.00% | 0.00% | 0.00% | 0.00% | 0.00% | 0.00% | 0.00% | 0.00% | 0.00%/day | release of cinnamic acid was not observed | –
5 | CC1(C)O[C@@H]2C[C@H]3[C@@H]4CCC5=CC(=O)C=C[C@]5(C)[C@@]4(F)[C@@H](O)C[C@]3(C)[C@]2(C(=O)CO)O1 [TA, triamcinolone acetonide] | – | – | – | – | – | – | – | – | – | – | 4.09 ng/g
6 | β-alanyl-hydroxyzine-introduced CS [CS-HYD-conjugate] | 0.00% | 0.65% | 1.48% | 2.38% | 3.35% | 4.30% | 5.24% | 6.05% | 0.89%/day | – | –
